For data set [1], the system named is HeLa Kyoto. Put plainly: thermal stability score vs G1/S (z-score of summed log2 fold changes over temperatures); higher = more thermally stable than in G1/S.
In data set [2] the test system is HeLa Kyoto. Put plainly: solubility in G1/S (NP-40 vs SDS abundance) (log2 ratio); higher = more soluble. Conditions: cell cycle stage: G1/S.
Data set [3] concerns HeLa Kyoto. Put plainly: solubility change mitosis vs G1/S (difference of NP-40 vs SDS log2 ratios) (log2 ratio difference); higher = more soluble in mitosis.
The test system of data set [4] is HeLa Kyoto. Put plainly: melting temperature (median over replicates), in situ; higher = more thermally stable.
Setting [5] is: cell cycle stage: early G1 (4.5 h after nocodazole release).
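Throughout, for melting temperature (median over replicates), in situ: HeLa Kyoto cells synchronized by double thymidine or nocodazole block, proteins quantified by TMT10plex mass spectrometry, three independent biological replicates.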
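Throughout, for solubility change mitosis vs G1/S (difference of NP-40 vs SDS log2 ratios): synchronized HeLa Kyoto cells (double thymidine block for G1/S, nocodazole release for mitosis), protein amounts in NP-40 versus SDS lysates quantified by mass spectrometry, three biological replicates.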
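Throughout, for solubility in G1/S (NP-40 vs SDS abundance): HeLa Kyoto cells arrested at G1/S by double thymidine block, proteins quantified by TMT10plex mass spectrometry in mild NP-40 versus SDS extracts, three biological replicates.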
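Throughout, for thermal stability score vs G1/S (z-score of summed log2 fold changes over temperatures): synchronized HeLa Kyoto cells, proteins quantified by TMT10plex mass spectrometry, three biological replicates, mitosis taken 0.5 h after nocodazole release, G1/S directly after double thymidine block.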

“MARPDDEEGAAVAPGHPLAKGYLPLPRGAPVGKESVELQNGPKAGTFPVNGAPRDSLAAASGVLGGPQTPLAPEEETQARLLPAGAGAETPGAESSPLPLTALSPRRFVVLLIFSLYSLVNAFQWIQYSIISNVFEGFYGVTLLHIDWLSMVYMLAYVPLIFPATWLLDTRGLRLTALLGSGLNCLGAWIKCGSVQQHLFWVTMLGQCLCSVAQVFILGLPSRIASVWFGPKEVSTACATAVLGNQLGTAVGFLLPPVLVPNTQNDTNLLACNISTMFYGTSAVATLLFILTAIAFKEKPRYPPSQAQAALQDSPPEEYSYKKSIRNLFKNIPFVLLLITYGIMTGAFYSVSTLLNQMILTYYEGEEVNAGRIGLTLVVAGMVGSILCGLWLDYTKTYKQTTLIVYILSFIGMVIFTFTLDLRYIIIVFVTGGVLGFFMTGYLPLGFEFAVEITYPESEGTSSGLLNASAQIFGILFTLAQGKLTSDYGPKAGNIFLCVWMFIGIILTALIKSDLRRHNINIGITNVDVKAIPADSPTDQEPKTVMLSKQSESAI [FLVCR1]”: the values for the thermal stability score in the data set on HeLa Kyoto [1] (setting [5]) and in the data set on HeLa Kyoto [1] (cell cycle stage: mitosis) were -1.21 and -2.85, respectively. Also, the “solubility in G1/S (log2)” value in the data set with HeLa Kyoto [2] is -0.162. Further, in the data set on HeLa Kyoto [3], the “solubility change mitosis (log2)” value is -0.0168. Moreover, the melting temperature in the data set with HeLa Kyoto [4] (cell cycle stage: G1/S) came out at 57.4 °C; with HeLa Kyoto [4] (cell cycle stage: mitosis) it was 59.1 °C.

As for “MPEEGSGCSVRRRPYGCVLRAALVPLVAGLVICLVVCIQRFAQAQQQLPLESLGWDVAELQLNHTGPQQDPRLYWQGGPALGRSFLHGPELDKGQLRIHRDGIYMVHIQVTLAICSSTTASRHHPTTLAVGICSPASRSISLLRLSFHQGCTIASQRLTPLARGDTLCTNLTGTLLPSRNTDETFFGVQWVRP [CD70]”, the values for the thermal stability score with HeLa Kyoto [1] (setting [5]) and in the data set with HeLa Kyoto [1] (cell cycle stage: mitosis) were -2.35 and -1.58, respectively. Also, the “solubility in G1/S (log2)” value in the data set with HeLa Kyoto [2] worked out at 0.258. The “solubility change mitosis (log2)” value in the data set on HeLa Kyoto [3] is -0.0934. Also, the results for the melting temperature in the data set on HeLa Kyoto [4] (cell cycle stage: G1/S) and with HeLa Kyoto [4] (cell cycle stage: mitosis) were 54.9 °C and 57.1 °C, respectively.

In the case of HECTD1, the results for the thermal stability score with HeLa Kyoto [1] (setting [5]) and in the data set with HeLa Kyoto [1] (cell cycle stage: mitosis) were 0.479 and -0.0167, respectively. Besides, in the data set with HeLa Kyoto [2], the “solubility in G1/S (log2)” value is -0.212. Also, the “solubility change mitosis (log2)” value with HeLa Kyoto [3] was -0.16. Moreover, the melting temperature in the data set with HeLa Kyoto [4] (cell cycle stage: G1/S) and with HeLa Kyoto [4] (cell cycle stage: mitosis) was 50.4 °C throughout.

For the substance “MPSALAIFTCRPNSHPFQERHVYLDEPIKIGRSVARCRPAQNNATFDCKVLSRNHALVWFDHKTGKFYLQDTKSSNGTFINSQRLSRGSEESPPCEILSGDIIQFGVDVTENTRKVTHGCIVSTIKLFLPDGMEARLRSDVIHAPLPSPVDKVAANTPSMYSQELFQLSQYLQEALHREQMLEQKLATLQRLLAITQEASDTSWQALIDEDRLLSRLEVMGNQLQACSKNQTEDSLRKELIALQEDKHNYETTAKESLRRVLQEKIEVVRKLSEVERSLSNTEDECTHLKEMNERTQEELRELANKYNGAVNEIKDLSDKLKVAEGKQEEIQQKGQAEKKELQHKIDEMEEKEQELQAKIEALQADNDFTNERLTALQVRLEHLQEKTLKECSSLEHLLSKSGGDCTFIHQFIECQKKLIVEGHLTKAVEETKLSKENQTRAKESDFSDTLSPSKEKSSDDTTDAQMDEQDLNEPLAKVSLLKDDLQGAQSEIEAKQEIQHLRKELIEAQELARTSKQKCFELQALLEEERKAYRNQVEESTKQIQVLQAQLQRLHIDTENLREEKDSEITSTRDELLSARDEILLLHQAAAKVASERDTDIASLQEELKKVRAELERWRKAASEYEKEITSLQNSFQLRCQQCEDQQREEATRLQGELEKLRKEWNALETECHSLKRENVLLSSELQRQEKELHNSQKQSLELTSDLSILQMSRKELENQVGSLKEQHLRDSADLKTLLSKAENQAKDVQKEYEKTQTVLSELKLKFEMTEQEKQSITDELKQCKNNLKLLREKGNNKPWPWMPMLAALVAVTAIVLYVPGLARASP [SLMAP]”, the thermal stability score in the data set on HeLa Kyoto [1] (setting [5]) amounted to 0.404; in the data set with HeLa Kyoto [1] (cell cycle stage: mitosis), 0.436. Also, the “solubility in G1/S (log2)” value with HeLa Kyoto [2] came out at 0.152. Also, the “solubility change mitosis (log2)” value in the data set on HeLa Kyoto [3] is 0.0117. For the same substance, the melting temperature in the data set on HeLa Kyoto [4] (cell cycle stage: G1/S) was determined as 50.6 °C; with HeLa Kyoto [4] (cell cycle stage: mitosis), 51.2 °C.

Regarding “MAEAGDAALSVAEWLRALHLEQYTGLFEQHGLVWATECQGLSDTRLMDMGMLLPGHRRRILAGLLRAHTSPAPAPRPTPRPVPMKRHIFRSPPVPATPPEPLPTTTEDEGLPAAPPIPPRRSCLPPTCFTTPSTAAPDPVLPPLPAKRHLAELSVPPVPPRTGPPRLLVSLPTKEEESLLPSLSSPPQPQSEEPLSTLPQGPPQPPSPPPCPPEIPPKPVRLFPEFDDSDYDEVPEEGPGAPARVMTKKEEPPPSRVPRAVRVASLLSEGEELSGDDQGDEEEDDHAYEGVPNGGWHTSSLSLSLPSTIAAPHPMDGPPGGSTPVTPVIKAGWLDKNPPQGSYIYQKRWVRLDTDHLRYFDSNKDAYSKRFISVACISHVAAIGDQKFEVITNNRTFAFRAESDVERKEWMQALQQAMAEQRARARLSSAYLLGVPGSEQPDRAGSLELRGFKNKLYVAVVGDKVQLYKNLEEYHLGIGITFIDMSVGNVKEVDRRSFDLTTPYRIFSFSADSELEKEQWLEAMQGAIAEALSTSEVAERIWAAAPNRFCADCGAPQPDWASINLCVVICKRCAGEHRGLGAGVSKVRSLKMDRKVWTETLIELFLQLGNGAGNRFWAANVPPSEALQPSSSPSTRRCHLEAKYREGKYRRYHPLFGNQEELDKALCAAVTTTDLAETQALLGCGAGINCFSGDPEAPTPLALAEQAGQTLQMEFLRNNRTTEVPRLDSMKPLEKHYSVVLPTVSHSGFLYKTASAGKLLQDRRAREEFSRRWCVLGDGVLSYFENERAVTPNGEIRASEIVCLAVPPPDTHGFEHTFEVYTEGERLYLFGLESAEQAHEWVKCIAKAFVPPLAEDLLARDFERLGRLPYKAGLSLQRAQEGWFSLSGSELRAVFPEGPCEEPLQLRKLQELSIQGDSENQVLVLVERRRTLYIQGERRLDFMGWLGAIQKAAASMGDTLSEQQLGDSDIPVIVYRCVDYITQCGLTSEGIYRKCGQTSKTQRLLESLRQDARSVHLKEGEQHVDDVSSALKRFLRDLPDGLFTRAQRLTWLEASEIEDEEEKVSRYRELLVRLPPVNRATVKALISHLYCVQCFSDTNQMNVHNLAIVFGPTLFQTDGQDYKAGRVVEDLINHYVVVFSVDEEELRKQREEITAIVKMRVAGTASGTQHAGDFICTVYLEEKKAETEQHIKVPASMTAEELTLEILDRRNVGIREKDYWTCFEVNEREEAERPLHFAEKVLPILHGLGTDSHLVVKKHQAMEAMLLYLASRVGDTKHGMMKFREDRSLLGLGLPSGGFHDRYFILNSSCLRLYKEVRSQRPWSGAPETSHRPEKEWPIKSLKVYLGVKKKLRPPTCWGFTVVHETEKHEKQQWYLCCDTQMELREWFATFLFVQHDGLVWPSEPSRVSRAVPEVRLGSVSLIPLRGSENEMRRSVAAFTADPLSLLRNV [ARAP1]”, the thermal stability score in the data set with HeLa Kyoto [1] (setting [5]) is 0.748; in the data set with HeLa Kyoto [1] (cell cycle stage: mitosis) it was 0.922. Moreover, the “solubility in G1/S (log2)” value in the data set with HeLa Kyoto [2] was -0.0593. In the data set on HeLa Kyoto [3], the “solubility change mitosis (log2)” value is -0.0622. Also, the melting temperature with HeLa Kyoto [4] (cell cycle stage: G1/S) turned out to be 48.7 °C; with HeLa Kyoto [4] (cell cycle stage: mitosis) it was 49.1 °C.

On to “MAAGTSSYWEDLRKQARQLENELDLKLVSFSKLCTSYSHSSTRDGRRDRYSSDTTPLLNGSSQDRMFETMAIEIEQLLARLTGVNDKMAEYTNSAGVPSLNAALMHTLQRHRDILQDYTHEFHKTKANFMAIRERENLMGSVRKDIESYKSGSGVNNRRTELFLKEHDHLRNSDRLIEETISIAMATKENMTSQRGMLKSIHSKMNTLANRFPAVNSLIQRINLRKRRDSLILGGVIGICTILLLLYAFH [GOSR1]”, for which the thermal stability score is -0.21 with HeLa Kyoto [1] (setting [5]) and -0.667 with HeLa Kyoto [1] (cell cycle stage: mitosis). The “solubility in G1/S (log2)” value in the data set on HeLa Kyoto [2] is 0.28. Further, in the data set with HeLa Kyoto [3], the “solubility change mitosis (log2)” value stood at 0.02. The results for the melting temperature with HeLa Kyoto [4] (cell cycle stage: G1/S) and with HeLa Kyoto [4] (cell cycle stage: mitosis) were 54.7 °C and 52 °C, respectively.

Values taken from the supplement of paper PMC5998384.
